The record followed here is publication PMC6954424.

The test deals with mouse IgG (on magnet beads) (mouse). In words: pull-down; DNA-barcoded HaloTag protein G (93 nM by qPCR) mixed with mouse IgG magnet beads in PBS-NP40, 4°C, 2 h; three washes; bound barcode quantified by qPCR.

“DNA-barcoded HaloTag protein G (from UniProt P06654 34-417) (natural protein)” showed a fold signal (qPCR of the barcode) over the negative control barcoded GST with IgG of 1000 fold.
